The text below walks through data of patent US20190048074A1.

Assay [1] has as its target full-length human APLNR (human) (UniProt P35414). The assay can be described thus: FACS, 10 µg/mL antibody, HEK293/CRE-luc/hAPLNR cells. For orientation: A flow cytometer gives signals particle by particle.
Assay [2] concerns the target full length cynomolgus APLNR (cynomolgus monkey (Macaca fascicularis)). Kind of assay: FACS, 10 µg/mL antibody, HEK293/CRE-luc/MfAPLNR cells.
Assay [3] concerns the target full-length human APLNR (human) (UniProt P35414). The assay can be described thus: FACS, secondary alone, HEK293/CRE-luc/hAPLNR cells.
Assay [4] addresses full length cynomolgus APLNR (cynomolgus monkey (Macaca fascicularis)). The assay can be described thus: FACS, 4 µg/mL secondary alone, HEK293/CRE-luc/MfAPLNR cells.
For assay [5], the target named is full-length human APLNR (human) (UniProt P35414). Kind of assay: FACS, 4 µg/mL secondary alone, HEK293/CRE-luc/hAPLNR cells.
In assay [6] the target is full length cynomolgus APLNR (cynomolgus monkey (Macaca fascicularis)). The assay can be described thus: FACS, secondary alone, HEK293/CRE-luc/MfAPLNR cells.
Chain of full length cynomolgus APLNR (cynomolgus monkey (Macaca fascicularis)) (O97666 whole entry): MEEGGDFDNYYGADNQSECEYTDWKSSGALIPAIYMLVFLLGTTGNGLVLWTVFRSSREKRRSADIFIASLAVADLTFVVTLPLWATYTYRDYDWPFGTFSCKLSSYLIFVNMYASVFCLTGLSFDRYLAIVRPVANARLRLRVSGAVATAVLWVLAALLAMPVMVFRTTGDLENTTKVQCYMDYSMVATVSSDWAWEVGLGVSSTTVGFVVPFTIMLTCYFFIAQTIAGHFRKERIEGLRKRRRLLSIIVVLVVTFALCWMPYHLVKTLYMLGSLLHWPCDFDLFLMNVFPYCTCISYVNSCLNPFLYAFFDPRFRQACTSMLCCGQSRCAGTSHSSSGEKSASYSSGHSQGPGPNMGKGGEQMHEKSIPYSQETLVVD

Chain of full-length human APLNR (human) (P35414 whole entry): as the sequence (O97666 whole entry) above, with S101F, F167L, D194E, V290I counted along it

For “Isotype Control (Tables 4 and 5) (antibody)”, the Binding Ratio of Geom. Mean to Unstained Cells in assay [1] and in assay [2] was 2 fold in each case.
“anti-human IgG antibody conjugated with Alexa 488”: the Binding Ratio of Geom. Mean to Unstained Cells in assay [3], in assay [4], in assay [5] and in assay [6] was 2 fold throughout.
Turning to “anti-mouse IgG antibody conjugated with Alexa 647”, the Binding Ratio of Geom. Mean to Unstained Cells in assay [4] came to 3 fold; in assay [5], 4 fold.
For mouse IgG (mIgG) control antibody, the results for the Binding Ratio of Geom. Mean to Unstained Cells in assay [1] and in assay [2] were 7 fold and 6 fold, respectively.
